# This sample holds only a part of the variants without activity.
# B1: TPR 5TU (parent)
# chain: GGAUCUUCUCGAUCUAACAAAAAAGACAAAUCUGCCACAAAGCUUGAGAGCAUCUUCGGAUGCAGAGGCGGCAGCCUUCGGUGGCGCGAUAGCGCCAACGUUCUCAACUAUGACACGCAAAACGCGUGCUCCGUUGAAUGGAGUUUAUCAUG
# Variants of: B1
# Assay: polymerase ribozyme fitness, log enrichment relative to wild type (log ratio); higher = more active; in vitro selection for triplet polymerase activity
# In short: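 Both subunits of a heterodimeric triplet polymerase ribozyme were given their own mutant library, built by PCR and transcribed. Each library was annealed with a biotinylated primer, the partner subunit and triplets, incubated frozen at −7 °C, and its extended constructs gel-excised, captured on streptavidin beads and amplified by RT-PCR, all in one round done in triplicate. Fitness is the logarithm of genotype enrichment relative to wild-type enrichment, with replicates averaged by inverse-variance weighting. That logarithm is base 2, and Illumina-sequenced genotypes needed ≥10 input reads and ≥1 read per output.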
row,Variant,polymerase ribozyme fitness (log ratio)
1,GGAUCUUCUCGAUCUAACAAAAAAGACAAAUCUGCCACAAAGCUUGAGAGCAUCUUCGGAUGCAGAGGCGGCAGCCUUAGGUGGCGCGAUAGCGCCAACGUUGUCAACUAUGACACGCAAAACGCGUGCUACGUUGAAUGGAGUUUAUCAUG [C79A C103G C131A],≤ -4.2
2,GGAUCUUCUCGAUCUAACAAAAAAGACAAAUCUGCCACAAAGCUUGAGAGCAUCUUCGGAUGCAGAGGCGGCAGCCUCCGGUGGCGCGAUAACGCCAACGUUCUCAACUAUGACACGCAAAACGCGUGCUCCGUUGAAUGGAGUUUAUCAUG [U78C G92A],-3.78
3,GGAUCUUCUCGAUCUAACAAAAAAGACAAAUCUGCCACAAAGCUUGAGAGCAUCUUCGGAUGCAGAGGCGGCAGCCUGCGGUGGUGCGAUAGCGCCAACGUUCUCAACUAUGACACGCAAAACGCUUGCUCCGUUGAAUGGAGUUUAUCAUG [U78G C85U G126U],≤ -4.2
4,GGAUCUUCUCGAUCUAACAAAAAAGACAAAUCUGCCACAAAGCUUGAGAGCAUCUUCGGAUGCAGAGGCGGCAGCCUACAGAGGCGCGAUAGCGCCAACGUUCUCAACUAUGACACGCAAAACGCGUGCUCCGUUGAAUGGUGUUUAUCAUG [U78A G80A U82A A142U],≤ -4.2
5,GGAUCUUCUCGAUCUAACAAAAAAGACAAAUCUGCCACAAAGCUUGAGAGCAUCUUCGGAUGCAGAGGCGGCAGCCUUAGGUUGCGCGAUAGCGCCAACGUUCUCAACUAUGACACGCAAAACGCGUGCUCCGGUGAAUGGAGUUUAUCAUG [C79A G83U U134G],≤ -4.2
6,GGAUCUUCUCGAUCUAACAAAAAAGACAAAUCUGCCACAAAGCUUGAGAGCAUCUUCGGAUGCAGAGGCGGCAGCCUUAGGUGGCGCGAUAGCGCCAACGUUCUCGACUAUGACACGCAAAACGCGUGCUCCGUUGAAUGGAGUUGAUCAUG [C79A A106G U146G],≤ -4.2
7,GGAUCUUCUCGAUCUAACAAAAAAGACAAAUCUGCCACAAAGCUUGAGAGCAUCUUCGGAUGCAGAGGCGGCAGCCUGCGGUGGCGCGAUAGCGCCAACGUUCUCAACUAUGACACGCAAAACGCGCGCUCCGUUGAAUGGAGUUUAUCAUG [U78G U127C],≤ -4.2
8,GGAUCUUCUCGAUCUAACAAAAAAGACAAAUCUGCCACAAAGCUUGAGAGCAUCUUCGGAUGCAGAGGCGGCAGCCUGCGGUGGCGCGAUAGCUCCAACGUUCUCAACUAUGACACGCAAAACGCGUGCUCCGUUGAAUGGAGUUUAUCAUG [U78G G94U],-3.47
9,GGAUCUUCUCGAUCUAACAAAAAAGACAAAUCUGCCACAAAGCUUGAGAGCAUCUUCGGAUGCAGAGGCGGCAGCCUGCGGUGGCGCGAUAGCGCCAACGUUCUCAACUAUGAUACGCAAAACGAGUGCUCCGUUGAAUGGAGUUUAUUAUG [U78G C114U C125A C149U],≤ -4.2
10,GGAUCUUCUCGAUCUAACAAAAAAGACAAAUCUGCCACAAAGCUUGAGAGCAUCUUCGGAUGCAGAGGCGGCAGCCUCCGGUGGCGCGAUAGCGUCAACGUUCUCAAUUAUGACAUGCAAAACGCGUGCUCCGUUGAAUGGAGUUUAUCAUG [U78C C95U C108U C116U],≤ -4.2
11,GGAUCUUCUCGAUCUAACAAAAAAGACAAAUCUGCCACAAAGCUUGAGAGCAUCUUCGGAUGCAGAGGCGGCAGCCUCCGGUGGCGCGAUAGCGCCAACGUUCUCAACUAUGACACGCAAAACGCGUGCUCCGUUGAAUGGAGUUUAUCAUG [U78C],-0.318
12,GGAUCUUCUCGAUCUAACAAAAAAGACAAAUCUGCCACAAAGCUUGAGAGCAUCUUCGGAUGCAGAGGCGGCAGCCUUAGGUGGCGCGAUAGGGUCAACGUUCUCAACUAUGACACGCAAAACGCGGGCUUCGUUGAAUGGAUUUUAUCAUG [C79A C93G C95U U127G C131U G143U],≤ -4.2
13,GGAUCUUCUCGAUCUAACAAAAAAGACAAAUCUGCCACAAAGCUUGAGAGCAUCUUCGGAUGCAGAGGCGGCAGCCUCCGGUGGCGCGAUACCGCCAACGUUCUUGACUAUGAUACGCAAAACGCGUGCUCCGUUGAAUGGAGUUUAGCAUG [U78C G92C C105U A106G C114U U148G],≤ -4.2
14,GGAUCUUCUCGAUCUAACAAAAAAGACAAAUCUGCCACAAAGCUUGAGAGCAUCUUCGGAUGCAGAGGCGGCAGCCUGCGGUGGCGCGAUCGCGCCAACGUUCUCAACUAUGACACGCAAAACGCGUGCUGCGUUGAAUGGAGUUUAUCAUG [U78G A91C C131G],≤ -4.2
15,GGAUCUUCUCGAUCUAACAAAAAAGACAAAUCUGCCACAAAGCUUGAGAGCAUCUUCGGAUGCAGAGGCGGCAGCCUUAGGUGGCGCGAUUGCGCCAACGUUCUCACCUAUGACACGCAAAACCCGUGCUCCGUUGAAUGGAGCUUAUCAUG [C79A A91U A107C G124C U144C],≤ -4.2
16,GGAUCUUCUCGAUCUAACAAAAAAGACAAAUCUGCCACAAAGCUUGAGAGCAUCUUCGGAUGCAGAGGCGGCAGCCUUAAAUGGCGCUAUAGCGCCAACGUUCUCAACUAUGACACGCAAAACGCGUGCUCCGUUGAAUGGAGUUUAUCAUG [C79A G80A G81A G88U],≤ -4.2
17,GGAUCUUCUCGAUCUAACAAAAAAGACAAAUCUGCCACAAAGCUUGAGAGCAUCUUCGGAUGCAGAGGCGGCAGCCUACGGUGGCGCGACAGCGCCAACGUUCUCAACUAUGACACGCAAAACGCGUGCUCCGUUGAAUGGAGUUUAUCAUG [U78A U90C],≤ -4.2
18,GGAUCUUCUCGAUCUAACAAAAAAGACAAAUCUGCCACAAAGCUUGAGAGCAUCUUCGGAUGCAGAGGCGGCAGCCUCCGGUGGCGUGAUAACGCCAACGUUCUCAACUAUGACUCGCAAAACGCGUGCUCCGUUGAAUGGAGUUUAUCAUG [U78C C87U G92A A115U],-2.33
19,GGAUCUUCUCGAUCUAACAAAAAAGACAAAUCUGCCACAAAGCUUGAGAGCAUCUUCGGAUGCAGAGGCGGCAGCCUGCGGUGGCGGGAUAGCGCCAACGUUCUCAACUAUGACACGCAAAACGCGUGCUCCGUUGAAUGGAGUUUAUCAUG [U78G C87G],≤ -4.2

row,Variant,polymerase ribozyme fitness (log ratio)
1,GGAUCUUCUCGAUCUAACAAAAAAGACAAAUCUGCCACAAAGCUUGAGAGCAUCUUCGGAUGCAGAGGCGGCAGCCUGCGGUGGCGCGAGAGCGCCAACGUUCUCAACUAUGACACGCAAAACGCGUGCUACGUUGAAUGGAGUUUAUCAUG [U78G U90G C131A],≤ -4.2
2,GGAUCUUCUCGAUCUAACAAAAAAGACAAAUCUGCCACAAAGCUUGAGAGCAUCUUCGGAUGCAGAGGCGGCAGCCUUAGGUGGCGCGAUAGCGCCAACGUUCUCAAUUAUGACACGCAAAACGCGUGCUCCGUUGAAUGGAGUUUAUCAUG [C79A C108U],-4.06
3,GGAUCUUCUCGAUCUAACAAAAAAGACAAAUCUGCCACAAAGCUUGAGAGCAUCUUCGGAUGCAGAGGCGGCAGCCUGCGGUGGGGCGAUAGCGCCAACGUUCUCAACUAUGACACGCAAAACGCGUGCUCCGUUGAAUGGGGUUCAUCAUG [U78G C85G A142G U146C],≤ -4.2
4,GGAUCUUCUCGAUCUAACAAAAAAGACAAAUCUGCCACAAAGCUUGAGAGCAUCUUCGGAUGCAGAGGCGGCAGCCUUAGGUGGCGCGAUAGCGCCAACGUUGUCAACUAUGACACGCAAAACGCGUGCUCCGUUGAAUGGAGUUUAUCAUG [C79A C103G],≤ -4.2
5,GGAUCUUCUCGAUCUAACAAAAAAGACAAAUCUGCCACAAAGCUUGAGAGCAUCUUCGGAUGCAGAGGCGGCAGCCUUAGGUGGCGCGAUGGCGCCAACGUUCUCAACUGUGACACGCAAAACGCGUGCUCCGUUGAAUGGAGUUUAUCAUG [C79A A91G A110G],≤ -4.2
6,GGAUCUUCUCGAUCUAACAAAAAAGACAAAUCUGCCACAAAGCUUGAGAGCAUCUUCGGAUGCAGAGGCGGCAGCCUCCGGUGGCGCGAUAGCGCCAACGUUCUCAACUAUGACACGCAAAACGCGUGCUCCGUUGAAUGGUGUUUAUCAUG [U78C A142U],-1.72
7,GGAUCUUCUCGAUCUAACAAAAAAGACAAAUCUGCCACAAAGCUUGAGAGCAUCUUCGGAUGCAGAGGCGGCAGCCUCCGGUGGCGCGAUAGCGCCAACGUUCUCAACUAUGACACGCAAAACGCGUGCUCCGUUGAAUGGGGUUUAUCAUG [U78C A142G],-1.33
8,GGAUCUUCUCGAUCUAACAAAAAAGACAAAUCUGCCACAAAGCUUGAGAGCAUCUUCGGAUGCAGAGGCGGCAGCCUGCGGUGGCGCGAUAGCGCCAACGUUCUCAACUAUGACACGCAAAACGCGUGCUCCGUUGAAUGAAGUUUAUCAUG [U78G G141A],≤ -4.2
9,GGAUCUUCUCGAUCUAACAAAAAAGACAAAUCUGCCACAAAGCUUGAGAGCAUCUUCGGAUGCAGAGGCGGCAGCCUCCGGUGGCGCGAUAGCGCCAACGUUCUCAACUAUGACACGCAAAACGCGUGCUCCGUUGAAUGGAGUUCAUCAUG [U78C U146C],0.315
10,GGAUCUUCUCGAUCUAACAAAAAAGACAAAUCUGCCACAAAGCUUGAGAGCAUCUUCGGAUGCAGAGGCGGCAGCCUUAGGUGGCGCGAUAGCGCCAACGUUCUCAACUAUGACAAGCAAAACGCGUGCUCCGUUGAAUGGAGUUUAUCAUG [C79A C116A],-3.87
11,GGAUCUUCUCGAUCUAACAAAAAAGACAAAUCUGCCACAAAGCUUGAGAGCAUCUUCGGAUGCAGAGGCGGCAGCCUUAGGUGGCGCGAUAGCGCAAACGUUCUCAACUAUGACACGCAAAACGCGUGCUCCGUUGAAUGGAGUUUAUCAUG [C79A C96A],-4.03
12,GGAUCUUCUCGAUCUAACAAAAAAGACAAAUCUGCCACAAAGCUUGAGAGCAUCUUCGGAUGCAGAGGCGGCAGCCUUAGGUGGCGCGAUAGCGCGAACGUUCUCAACUAUGACACGCAAAACGCGUGCUCCGUUGAAUGGAGUUUAUCAUG [C79A C96G],≤ -4.2
13,GGAUCUUCUCGAUCUAACAAAAAAGACAAAUCUGCCACAAAGCUUGAGAGCAUCUUCGGAUGCAGAGGCGGCAGCCUCCGGUGGUGCGAUAGCGCCAACGUUAUCAACUAUGACACGCAAAACGCGUGCUCCGUUGAAUGUAGUUUAUCAUU [U78C C85U C103A G141U G152U],≤ -4.2
14,GGAUCUUCUCGAUCUAACAAAAAAGACAAAUCUGCCACAAAGCUUGAGAGCAUCUUCGGAUGCAGAGGCGGCAGCCUUAGGUGGCGCGAUAGAGUCAACGUUCUCAACUAUGACACGCAAAACGCGUGCUCCGUUGAAUGGAGUUUAUCAUG [C79A C93A C95U],≤ -4.2
15,GGAUCUUCUCGAUCUAACAAAAAAGACAAAUCUGCCACAAAGCUUGAGAGCAUCUUCGGAUGCAGAGGCGGCAGCCUCCGGUGGCGCGAUAGUGCCAAAGUUCUCAACUAUGACCCGCAAAACGCGUGCUCCGUUGAAUGGAGUUUAUCAUG [U78C C93U C99A A115C],-4.13
16,GGAUCUUCUCGAUCUAACAAAAAAGACAAAUCUGCCACAAAGCUUGAGAGCAUCUUCGGAUGCAGAGGCGGCAGCCUUAGGUAGCGCGAUAGCGCCAACGUUCUCAACUAUGACACGCAAAACGCGUGCUCCGUUGAAUGGAGUUUAUCAUG [C79A G83A],-3.78
17,GGAUCUUCUCGAUCUAACAAAAAAGACAAAUCUGCCACAAAGCUUGAGAGCAUCUUCGGAUGCAGAGGCGGCAGCCUACGGUGGCGCGAUAGCGGCAACGUUCUCAACUAUGACACGCAAAACGCGCGCGCCGUUGAAGGGAGUUUAUCAUG [U78A C95G U127C U130G U139G],≤ -4.2
18,GGAUCUUCUCGAUCUAACAAAAAAGACAAAUCUGCCACAAAGCUUGAGAGCAUCUUCGGAUGCAGAGGCGGCAGCCUGCGGUGGCGCGUUAGCGCCAACGUUCUCGACUAUGACACGUAAAACGCGUGCUCCGUUGAAUGGAGUUUAUCAUG [U78G A89U A106G C118U],≤ -4.2
19,GGAUCUUCUCGAUCUAACAAAAAAGACAAAUCUGCCACAAAGCUUGAGAGCAUCUUCGGAUGCAGAGGCGGCAGCCUGCGGUGGCGCGUUAGGGCCAACGUUCUCGACUAUGACACGGAAAACGCGUGCUCCGUUGAAUGGAGUCUAUCUGG [U78G A89U C93G A106G C118G U145C A150U U151G],≤ -4.2

# From the RNAGym collection of RNA variant scans (doi:10.1073/pnas.2313332121)
